The target in one data set is T1, BRD4 peptide S325.
T1 chain: GQRRESSRPVKPPRR

Another data set addresses T2, BRD4 peptide S338.
T2 chain: KKDVPDSQQHPAPRR

In another data set the target is T3, BRD4 peptide S358.
T3 chain: EQLKCCSGILKEMRR

Another data set deals with T4, BRD4 peptide T169.
T4 chain: ELPTEETEIMIVQRR

In data set [1] the target is BRD4-GST (BD1 and BD2 (49-460)) (BPS Bioscience 31044), O60885.

Experimental findings from US20230117831 are described below.

B1: AMPK α1β1γ1-His tag (SignalChem P47-10H) (protein)
chain 1: MRRLSSWRKMATAEKQKHDGRVKIGHYILGDTLGVGTFGKVKVGKHELTGHKVAVKILNRQKIRSLDVVGKIRREIQNLKLFRHPHIIKLYQVISTPSDIFMVMEYVSGGELFDYICKNGRLDEKESRRLFQQILSGVDYCHRHMVVHRDLKPENVLLDAHMNAKIADFGLSNMMSDGEFLRTSCGSPNYAAPEVISGRLYAGPEVDIWSSGVILYALLCGTLPFDDDHVPTLFKKICDGIFYTPQYLNPSVISLLKHMLQVDPMKRATIKDIREHEWFKQDLPKYLFPEDPSYSSTMIDDEALKEVCEKFECSEEEVLSCLYNRNHQDPLAVAYHLIIDNRRIMNEAKDFYLATSPPDSFLDDHHLTRPHPERVPFLVAETPRARHTLDELNPQKSKHQGVRKAKWHLGIRSQSRPNDIMAEVCRAIKQLDYEWKVVNPYYLRVRRKNPVTSTYSKMSLQLYQVDSRTYLLDFRSIDDEITEAKSGTATPQRSGSVSNYRSCQRSDSDAEAQGKSSEVSLTSSVTSLDSSPVDLTPRPGSHTIEFFEMCANLIKILAQ
chain 2: MGNTSSERAALERHGGHKTPRRDSSGGTKDGDRPKILMDSPEDADLFHSEEIKAPEKEEFLAWQHDLEVNDKAPAQARPTVFRWTGGGKEVYLSGSFNNWSKLPLTRSHNNFVAILDLPEGEHQYKFFVDGQWTHDPSEPIVTSQLGTVNNIIQVKKTDFEVFDALMVDSQKCSDVSELSSSPPGPYHQEPYVCKPEERFRAPPILPPHLLQVILNKDTGISCDPALLPEPNHVMLNHLYALSIKDGVMVLSATHRYKKKYVTTLLYKPI
chain 3: METVISSDSSPAVENEHPQETPESNNSVYTSFMKSHRCYDLIPTSSKLVVFDTSLQVKKAFFALVTNGVRAAPLWDSKKQSFVGMLTITDFINILHRYYKSALVQIYELEEHKIETWREVYLQDSFKPLVCISPNASLFDAVSSLIRNKIHRLPVIDPESGNTLYILTHKRILKFLKLFITEFPKPEFMSKSLEELQIGTYANIAMVRTTTPVYVALGIFVQHRVSALPVVDEKGRVVDIYSKFDVINLAAEKTYNNLDVSVTKALQHRSHYFEGVLKCYLHETLETIINRLVEAEVHRLVVVDENDVVKGIVSLSDILQALVLTGGEKKP
Take B1: the “ADP-Glo assay, phosphorylation of the peptide by AMPK compared with the SAMS peptide” value with BRD4 peptide S325, with BRD4 peptide S338, with BRD4 peptide S358 and with BRD4 peptide T169 was “these peptides showed a 250-fold lower preference for phosphorylation than AMPK's natural ACC substrate-SAMS peptide” each time. Moreover, the “BRD4 phosphorylation, western blot with phospho-AMPK substrate motif antibody” value in data set [1] is “Applicants observed BRD4 phosphorylation only when PHICS, BRD4, and kinase were present”.
